Measurements published in PMC9481577, “Structures reveal a key mechanism of WAVE regulatory complex activation by Rac1 GTPase” (Nature Communications, 2022).

Target: T1, HSPC300 (subunit of the WRC) (human, UniProt Q8WUW1 1-75)
T1 construct: HSPC300, human, full length; source: E. coli, purified within the WRC
T1 sequence (looked up): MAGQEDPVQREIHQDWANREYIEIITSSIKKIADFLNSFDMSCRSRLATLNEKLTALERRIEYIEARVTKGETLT
Test: cryo-EM structure; WRC^apo at 1.2 µM in 10 mM HEPES-KOH pH 7.0, 50 mM KCl, 1 mM MgCl2, 1 mM DTT, 5% (v/v) glycerol; 3.0 Å
Conditions: both partners purified

binding result: binds
B1: WAVE1(1-230)-(GGS)6-WCA(485-559) (subunit of the WRC) (domain or fragment, human)
chain: MPLVKRNIDPRHLCHTALPRGIKNELECVTNISLANIIRQLSSLSKYAEDIFGELFNEAHSFSFRVNSLQERVDRLSVSVTQLDPKEEELSLQDITMRKAFRSSTIQDQQLFDRKTLPIPLQETYDVCEQPPPLNILTPYRDDGKEGLKFYTNPSYFFDLWKEKMLQDTEDKRKEKRKQKQKNLDRPHEPEKVPRAPHDRRREWQKLAQGPELAEDDANLLHKHIEVANGGGSGGSGGSGGSGGSGGSKRHPSTLPVISDARSVLLEAIRKGIQLRKVEEQREQEAKHERIENDVATILSRRIAVEYSDSEDDSEFDEVDWLE
notes: WAVE1, human, residues 1-230; (GGS)6 linker, written out from the printed formula; WAVE1, human, WCA, residues 485-559; source: E. coli, purified within the WRC
